The values below come from the supplement of paper PMC11316812.

One data set has as its system hTERT-HMEC. Kind of data set: percentage of EdU-negative (G0-arrested) nuclei per well, 72 h; higher = more G0 arrest. The conditions noted are these: reference: sequence is the full UniProt precursor, the tested protein was the secreted form or ectodomain.
In another data set the test system is MCF7. Described as above. The conditions noted are these: reference: sequence is the full UniProt precursor, the tested protein was the secreted form or ectodomain.
[1] abbreviates: protein concentration 0.03125 µM.
Where [2] appears, read: protein concentration 0.3125 µM.
[3] abbreviates: protein concentration 0.02778 µM.
Where [4] appears, read: protein concentration 0.2778 µM.
Where [5] appears, read: protein concentration 0.021155 µM.
The mark [6] stands for this setting: protein concentration 0.21155 µM.
The mark [7] stands for this setting: protein concentration 0.0225 µM.
Setting [8] is: protein concentration 0.0135 µM.

± gives the standard deviation of the averaged measurements.
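Note: secreted proteins added to cultured cells, EdU pulse at the end, nuclei found by Hoechst imaging, EdU status from nuclear versus surrounding ring intensity ratio, PBS as neutral control.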

As to “MSRLPVLLLLQLLVRPGLQAPMTQTTPLKTSWVNCSNMIDEIITHLKQPPLPLLDFNNLNGEDQDILMENNLRRPNLEAFNRAVKSLQNASAIESILKNLLPCLPLATAAPTRHPIHIKDGDWNEFRRKLTFYLKTLENAQAQQTTLSLAIF”, the “percentage of EdU-negative” value in the data set with hTERT-HMEC (setting [1]) was 5.21 ± 0.57%; in the data set with hTERT-HMEC (setting [2]), 4.85 ± 0.58%; in the data set with MCF7 (setting [1]) it was 27.8 ± 0.94%; in the data set with MCF7 (setting [2]), 23.6 ± 1.8%.

“MSRPQLRRWRLVSSPPSGVPGLALLALLALLALRLAAGTDCPCPEPELCRPIRHHPDFEVFVFDVGQKTWKSYDWSQITTVATFGKYDSELMCYAHSKGARVVLKGDVSLKDIIDPAFRASWIAQKLNLAKTQYMDGINIDIEQEVNCLSPEYDALTALVKETTDSFHREIEGSQVTFDVAWSPKNIDRRCYNYTGIADACDFLFVMSYDEQSQIWSECIAAANAPYNQTLTGYNDYIKMSINPKKLVMGVPWYGYDYTCLNLSEDHVCTIAKVPFRGAPCSDAAGRQVPYKTIMKQINSSISGNLWDKDQRAPYYNYKDPAGHFHQVWYDNPQSISLKATYIQNYRLRGIGMWNANCLDYSGDAVAKQQTEEMWEVLKPKLLQR”: the “percentage of EdU-negative” value in the data set with hTERT-HMEC (setting [3]) was 5.6 ± 0.68%; in the data set on hTERT-HMEC (setting [4]) it was 6.64 ± 0.1%; with MCF7 (setting [3]), 25.1 ± 3.2%; in the data set on MCF7 (setting [4]) it was 24.6 ± 1.1%.

In the case of “MSRQLLPVLLLLLLRASCPWGQEQGARSPSEEPPEEEIPKEDGILVLSRHTLGLALREHPALLVEFYAPWCGHCQALAPEYSKAAAVLAAESMVVTLAKVDGPAQRELAEEFGVTEYPTLKFFRNGNRTHPEEYTGPRDAEGIAEWLRRRVGPSAMRLEDEAAAQALIGGRDLVVIGFFQDLQDEDVATFLALAQDALDMTFGLTDRPRLFQQFGLTKDTVVLFKKFDEGRADFPVDEELGLDLGDLSRFLVTHSMRLVTEFNSQTSAKIFAARILNHLLLFVNQTLAAHRELLAGFGEAAPRFRGQVLFVVVDVAADNEHVLQYFGLKAEAAPTLRLVNLETTKKYAPVDGGPVTAASITAFCHAVLNGQVKPYLLSQEIPPDWDQRPVKTLVGKNFEQVAFDETKNVFVKFYAPWCTHCKEMAPAWEALAEKYQDHEDIIIAELDATANELDAFAVHGFPTLKYFPAGPGRKVIEYKSTRDLETFSKFLDNGGVLPTEEPPEEPAAPFPEPPANSTMGSKEEL”, the “percentage of EdU-negative” value with hTERT-HMEC (setting [5]) turned out to be 5.52 ± 0.95%; with hTERT-HMEC (setting [6]) it was 5.36 ± 0.59%; in the data set with MCF7 (setting [5]), 34 ± 1.9%; in the data set with MCF7 (setting [6]), 26.76 ± 0.05%.

For the sequence “MSRREGSLEDPQTDSSVSLLPHLEAKIRQTHSLAHLLTKYAEQLLQEYVQLQGDPFGLPSFSPPRLPVAGLSAPAPSHAGLPVHERLRLDAAALAALPPLLDAVCRRQAELNPRAPRLLRRLEDAARQARALGAAVEALLAALGAANRGPRAEPPAATASAASATGVFPAKVLGLRVCGLYREWLSRTEGDLGQLLPGGSA”, the “percentage of EdU-negative” value was 4.52 ± 0.57% in the data set on hTERT-HMEC (setting [7]), 6.17 ± 0.093% in the data set with hTERT-HMEC (protein concentration 0.225 µM), 25.7 ± 2.9% in the data set on MCF7 (setting [7]) and 26.5 ± 1.6% with MCF7 (protein concentration 0.225 µM).

For “MSSAAGFCASRPGLLFLGLLLLPLVVAFASAEAEEDGDLQCLCVKTTSQVRPRHITSLEVIKAGPHCPTAQLIATLKNGRKICLDLQAPLYKKIIKKLLES”, the “percentage of EdU-negative” value with hTERT-HMEC (setting [1]) worked out at 5.71 ± 0.5%; with hTERT-HMEC (setting [2]) it was 5.011 ± 0.0019%; in the data set with MCF7 (setting [1]), 23.9 ± 0.55%; in the data set with MCF7 (setting [2]) it was 26.1 ± 3.4%.

As for “MSSAARSRLTRATRQEMLFLALLLLPVVVAFARAEAEEDGDLQCLCVKTTSQVRPRHITSLEVIKAGPHCPTAQLIATLKNGRKICLDLQALLYKKIIKEHLES”, the “percentage of EdU-negative” value in the data set on hTERT-HMEC (setting [7]) amounted to 5.03 ± 0.052%; with hTERT-HMEC (protein concentration 0.225 µM), 5.8 ± 0.41%; in the data set with MCF7 (setting [7]) it was 25.1 ± 0.73%; with MCF7 (protein concentration 0.225 µM) it was 24.9 ± 0.32%.

Consider “MSSEEGKLFVGGLNFNTDEQALEDHFSSFGPISEVVVVKDRETQRSRGFGFITFTNPEHASVAMRAMNGESLDGRQIRVDHAGKSARGTRGGGFGAHGRGRSYSRGGGDQGYGSGRYYDSRPGGYGYGYGRSRDYNGRNQGGYDRYSGGNYRDNYDN”, for which the “percentage of EdU-negative” value with hTERT-HMEC (setting [8]) turned out to be 5 ± 0.36%; with hTERT-HMEC (protein concentration 0.135 µM), 8.05 ± 0.55%; in the data set with MCF7 (setting [8]), 25.1 ± 3.6%; in the data set on MCF7 (protein concentration 0.135 µM) it was 27 ± 1.7%.

“MSSENCFVAENSSLHPESGQENDATSPHFSTRHEGSFQVPVLCAVMNVVFITILIIALIALSVGQYNCPGQYTFSMPSDSHVSSCSEDWVGYQRKCYFISTVKRSWTSAQNACSEHGATLAVIDSEKDMNFLKRYAGREEHWVGLKKEPGHPWKWSNGKEFNNWFNVTGSDKCVFLKNTEVSSMECEKNLYWICNKPYK”: the “percentage of EdU-negative” value in the data set with hTERT-HMEC (setting [7]) was determined as 5.44 ± 1.4%; in the data set on hTERT-HMEC (protein concentration 0.225 µM) it was 5.3 ± 0.56%; in the data set on MCF7 (setting [7]) it was 23.5 ± 0.69%; in the data set with MCF7 (protein concentration 0.225 µM) it was 23.6 ± 0.57%.

In the case of “MSSFGYRTLTVALFTLICCPGSDEKVFEVHVRPKKLAVEPKGSLEVNCSTTCNQPEVGGLETSLDKILLDEQAQWKHYLVSNISHDTVLQCHFTCSGKQESMNSNVSVYQPPRQVILTLQPTLVAVGKSFTIECRVPTVEPLDSLTLFLFRGNETLHYETFGKAAPAPQEATATFNSTADREDGHRNFSCLAVLDLMSRGGNIFHKHSAPKMLEIYEPVSDSQMVIIVTVVSVLLSLFVTSVLLCFIFGQHLRQQRMGTYGVRAAWRRLPQAFRP”, the “percentage of EdU-negative” value amounted to 5.54 ± 0.21% with hTERT-HMEC (setting [7]), 6.02 ± 0.093% with hTERT-HMEC (protein concentration 0.225 µM), 24.9 ± 0.91% in the data set with MCF7 (setting [7]) and 27.28 ± 0.18% in the data set on MCF7 (protein concentration 0.225 µM).

Take “MSSFSTTTVSFLLLLAFQLLGQTRANPMYNAVSNADLMDFKNLLDHLEEKMPLEDEVVPPQVLSEPNEEAGAALSPLPEVPPWTGEVSPAQRDGGALGRGPWDSSDRSALLKSKLRALLTAPRSLRRSSCFGGRMDRIGAQSGLGCNSFRY”: the “percentage of EdU-negative” value is 4.9 ± 0.49% with hTERT-HMEC (setting [7]), 6.92 ± 0.56% with hTERT-HMEC (protein concentration 0.225 µM), 25 ± 2.1% in the data set on MCF7 (setting [7]) and 25.7 ± 1.1% with MCF7 (protein concentration 0.225 µM).
